We go through one substance from US20060057623.

The target of the series is HDAC1 (histone deacetylase 1), wild-type (UniProt Q13547).
Chain of HDAC1 (histone deacetylase 1), wild-type (Q13547 whole entry): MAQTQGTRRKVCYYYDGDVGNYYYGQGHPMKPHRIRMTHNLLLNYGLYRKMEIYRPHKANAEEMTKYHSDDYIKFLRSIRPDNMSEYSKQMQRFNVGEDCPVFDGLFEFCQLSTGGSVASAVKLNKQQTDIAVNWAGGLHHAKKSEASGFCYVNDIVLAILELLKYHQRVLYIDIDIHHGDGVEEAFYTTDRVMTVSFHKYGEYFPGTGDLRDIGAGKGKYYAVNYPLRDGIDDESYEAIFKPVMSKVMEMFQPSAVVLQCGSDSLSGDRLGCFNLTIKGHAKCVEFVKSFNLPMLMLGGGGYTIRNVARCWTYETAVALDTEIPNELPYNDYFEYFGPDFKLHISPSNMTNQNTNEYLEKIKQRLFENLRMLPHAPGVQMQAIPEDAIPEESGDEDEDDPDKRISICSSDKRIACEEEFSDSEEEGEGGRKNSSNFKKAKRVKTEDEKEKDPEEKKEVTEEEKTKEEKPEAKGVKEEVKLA

In the case of “SENP1 catalytically inactive mutant (R630L, K631M)”, the “deacetylase activity of HDAC1 precipitates” value is “expression of SENP1 mutant did not affect HDAC1's deacetylase activity”.
